Data reported in patent publication US20240043537A1 (MacroGenics, published 2024).
Where a chain is given by its changes, count along the chain named.

B1: CD123-WT (bispecific antibody)
chain 1: DFVMTQSPDSLAVSLGERVTMSCKSSQSLLNSGNQKNYLTWYQQKPGQPPKLLIYWASTRESGVPDRFSGSGSGTDFTLTISSLQAEDVAVYYCQNDYSYPYTFGQGTKLEIKGGGSGGGGEVQLVESGGGLVQPGGSLRLSCAASGFTFSTYAMNWVRQAPGKGLEWVGRIRSKYNNYATYYADSVKDRFTISRDDSKNSLYLQMNSLKTEDTAVYYCVRHGNFGNSYVSWFAYWGQGTLVTVSSGGCGGGEVAALEKEVAALEKEVAALEKEVAALEKGGGDKTHTCPPCPAPEAAGGPSVFLFPPKPKDTLMISRTPEVTCVVVDVSHEDPEVKFNWYVDGVEVHNAKTKPREEQYNSTYRVVSVLTVLHQDWLNGKEYKCKVSNKALPAPIEKTISKAKGQPREPQVYTLPPSREEMTKNQVSLWCLVKGFYPSDIAVEWESNGQPENNYKTTPPVLDSDGSFFLYSKLTVDKSRWQQGNVFSCSVMHEALHNHYTQKSLSLSPGK
chain 2: QAVVTQEPSLTVSPGGTVTLTCRSSTGAVTTSNYANWVQQKPGQAPRGLIGGTNKRAPWTPARFSGSLLGGKAALTITGAQAEDEADYYCALWYSNLWVFGGGTKLTVLGGGGSGGGGEVQLVQSGAELKKPGASVKVSCKASGYTFTDYYMKWVRQAPGQGLEWIGDIIPSNGATFYNQKFKGRVTITVDKSTSTAYMELSSLRSEDTAVYYCARSHLLRASWFAYWGQGTLVTVSSGGCGGGKVAALKEKVAALKEKVAALKEKVAALKE
chain 3: not shown
notes: Three-chain diabody with Fc; also called CD123 x CD3 mAb 1 DART-B-type diabody
B2: CD123-M1 (bispecific antibody)
chain 1: B1 chain 1 with S231T
chain 2: B1 chain 2
chain 3: not shown
notes: Three-chain diabody with Fc; also called CD123 x CD3 mAb 1 M1 DART-B-type diabody

Legend:
soluble human CD3 [1] = molecular target: T1, soluble human CD3 (human, UniProt P07766 23-126); assay: SPR (BIAcore), diabody over immobilized soluble human CD3, 1:1 fit
Protocol: (§1) The ability of the CD123-binding diabodies: CD123-WT, CD123-M1, CD123-M2 and CD123-M18 to bind to human CD3 and CD123 was also evaluated using BIAcore®. […] Table 14 presents the calculated kₐ, kd and KD from these studies.

cyno CD3 = cyno CD3 (cynomolgus, UniProt Q95LI5 22-117); assay: SPR (BIAcore), diabody 6.25-400 nM over immobilized cyno CD3, 1:1 Langmuir fit
Protocol: (§2) In additional studies the ability of CD123-binding diabodies: CD123-WT, CD123-M13, CD123-M17 and CD123-M19 to bind to human CD3 and cynomolgus CD3 was also evaluated using BIAcore®. […] Table 15B presents the calculated kₐ, kd and KD.

[2] = molecular target: T2, soluble human CD123, His-tagged (human, UniProt P26951 19-305); assay: SPR (BIAcore), diabody over His-tagged CD123 captured on anti-PentaHis, 1:1 fit
T2 construct: Captured on an anti-PentaHis surface; also called soluble CD123; not shown: His tag
T2 sequence (looked up): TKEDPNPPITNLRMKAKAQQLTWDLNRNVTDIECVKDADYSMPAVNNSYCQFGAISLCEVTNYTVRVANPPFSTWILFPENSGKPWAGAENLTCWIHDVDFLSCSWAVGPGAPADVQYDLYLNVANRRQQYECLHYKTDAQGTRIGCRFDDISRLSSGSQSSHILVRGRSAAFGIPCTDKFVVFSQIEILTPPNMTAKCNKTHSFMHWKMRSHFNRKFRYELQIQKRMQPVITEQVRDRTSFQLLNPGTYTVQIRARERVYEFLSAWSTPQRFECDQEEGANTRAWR
Protocol: as §1

soluble human CD3 [3] = molecular target: T1, soluble human CD3; assay: SPR (BIAcore), diabody 6.25-400 nM over immobilized human CD3, 1:1 Langmuir fit
Protocol: as §2

CD8 on CD8+ T-cells = molecular target: T3, CD8 on CD8+ T-cells (UniProt P01732 22-235; P10966 22-210); assay: flow cytometry on CD8+ T-cells, MFI (geo mean) against concentration (nM); CD123-WT is the diabody comparator without a CD8-Binding Domain
T3 construct: whole, on cells; also called CD8 expressing CD8+ T-cells

CD123 on MOLM-13 cells = molecular target: T4, CD123 on MOLM-13 cells (UniProt P26951 19-378, limits assumed); assay: Flow cytometry on MOLM-13 cells; detection with biotinylated anti-E/K-coil antibody and streptavidin-PE
T4 construct: whole, on cells; also called CD123-expressing MOLM-13 cells
Protocol: FIG. 9A-9B show the ability of DART-B-type diabodies to bind to Disease Antigens. […] Binding was detected using biotinylated antibody specific for the diabodies' E/K coils and streptavidin-phycoerythrin (PE).
The ability of such diabodies to bind to their respective Disease Antigen (i.e., CD123 or 5T4) on the surface of MOLM-13 leukemia (CD123) or A-498 kidney carcinoma (5T4) target cancer cells was assessed using FACS. Briefly, cells were incubated with the diabody molecules (in FACS buffer containing 10% human AB serum) in microtiter plates. The cells were washed and incubated with biotin-conjugated mouse anti-EK-coil antibody that recognizes the E-coil/K-coil (EK) Heterodimer-Promoting Domain of the diabodies mixed with streptavidin-phycoerythrin.

T1 sequence (P07766 23-126): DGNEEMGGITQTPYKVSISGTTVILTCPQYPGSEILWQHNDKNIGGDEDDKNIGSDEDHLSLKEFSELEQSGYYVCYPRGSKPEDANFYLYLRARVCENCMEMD
Chain of cyno CD3 (Q95LI5 22-117): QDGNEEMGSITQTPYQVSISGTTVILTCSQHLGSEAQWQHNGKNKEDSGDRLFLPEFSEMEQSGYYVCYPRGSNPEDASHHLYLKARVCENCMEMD
T3 sequence (P01732 22-235, chain 1 of 2): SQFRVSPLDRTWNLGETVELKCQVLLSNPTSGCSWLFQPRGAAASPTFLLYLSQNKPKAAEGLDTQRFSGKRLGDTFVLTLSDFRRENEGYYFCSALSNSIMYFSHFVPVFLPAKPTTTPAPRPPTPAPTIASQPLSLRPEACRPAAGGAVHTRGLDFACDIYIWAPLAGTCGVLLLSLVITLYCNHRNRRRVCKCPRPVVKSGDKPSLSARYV
T3 sequence (P10966 22-210, chain 2 of 2): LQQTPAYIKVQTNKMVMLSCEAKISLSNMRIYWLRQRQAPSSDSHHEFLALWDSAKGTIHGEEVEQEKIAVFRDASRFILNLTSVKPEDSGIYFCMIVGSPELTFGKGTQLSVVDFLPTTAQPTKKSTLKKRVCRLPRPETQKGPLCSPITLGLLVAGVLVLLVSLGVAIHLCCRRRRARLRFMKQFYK

Binder	Kd (soluble human CD3 [1]) [nM]	Kd (cyno CD3) [nM]	Kd [2] [nM]	Kd (soluble human CD3 [3]) [nM]	binding result (CD8 on CD8+ T-cells)	EC50 (read off the curve) (CD123 on MOLM-13 cells) [nM]
B1	67	39	2	52	no binding (tested: 100 nM)	
B2	842		1.2			~2
